This note sets out measurements from paper PMC7857400 (2020).

Test [1] deals with T1, SARS-CoV-2 spike protein receptor binding domain (RBD) (SARS-CoV-2, UniProt P0DTC2 319-541). Nature of the test: SPR. (In general: In SPR one partner is held on a chip, and binding of the other changes the refractive index at the surface.)
Test [2] has as its target T1, SARS-CoV-2 spike protein receptor …. Nature of the test: SPR. This is another data set of the same source.

B1: Nb21 (VHH)
VHH: QVQLVESGGGLVQAGGSLRLSCAVSGLGAHRVGWFRRAPGKEREFVAAIGANGGNTNYLDSVKGRFTISRDNAKNTIYLQMNSLKPQDTAVYYCAARDIETAEYTYWGQGTQVTVSS
In the case of B1, in test [1], the koff was under 1e-06 s⁻¹. Besides, the Kd in test [2] is under 1 pM.

One may read the koff as the first-order rate constant of dissociation. Low readings indicate slow dissociation, high ones fast dissociation. As usually defined, the Kd is the equilibrium constant for the complex coming apart. Low readings indicate a tighter complex, high ones a looser complex.
